Experimental findings from paper PMC5234079, “Structural basis of human PCNA sliding on DNA” are described below.

What is called stoichiometry N is a count of units in the complex or per binding partner. For orientation: Kd means a measure of binding affinity in units of concentration.

Data set [1] addresses Human PCNA (proliferating cell nuclear antigen) (human). Description: crystal structure; co-crystal of PCNA with a 10 bp dsDNA, hanging drop, 20 °C, 11% PEG 3350, 0.1 M sodium acetate pH 4.5; space group H3, 2.8 Å.
For another data set, the target named is PCNA (human, UniProt P12004 1-261). Put plainly: NMR; 1H-15N TROSY titration, T73 CSP, single-site model; text gives ~0.7 mM; NMR: 100 uM PCNA, 20 mM sodium phosphate, 50 mM NaCl, pH 7.0, 20 uM DSS, 0.01% NaN3, 5% 2H2O, 35 C. Conditions: protein: recombinant; tags: N-terminal His6 and PreScission site, cleaved; residual GPH- at N terminus; chain copies: 3; blunt.
Chain of PCNA (P12004 whole entry): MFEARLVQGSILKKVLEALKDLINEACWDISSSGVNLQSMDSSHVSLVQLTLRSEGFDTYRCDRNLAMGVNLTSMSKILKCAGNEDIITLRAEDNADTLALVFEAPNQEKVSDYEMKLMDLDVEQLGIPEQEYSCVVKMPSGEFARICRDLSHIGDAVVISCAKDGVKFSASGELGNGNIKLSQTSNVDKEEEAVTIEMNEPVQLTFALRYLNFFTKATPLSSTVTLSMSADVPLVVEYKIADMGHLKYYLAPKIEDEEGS

Regarding “Human PCNA (proliferating cell nuclear antigen) (natural protein)”, the stoichiometry N in data set [1] was found to be 3.

B1: 10 bp dsDNA (dsDNA)
DNA 1: ATACGATGGG
DNA 2: CCCATCGTAT
B1: the Kd in the data set with PCNA is 700 ± 100 µM.
